Results reported in patent publication US20170319674A1.

Molecular target: NY-ESO-1 αβTCR with murinized domain 3 in β-chain, paired with the human TCRα-chain (human)
Test: cell-based or functional assay

For H57-597 (antibody), the percentage of lysis (standard chromium release assay) was 4 fold.
